Experimental data published in the RNAGym collection of RNA variant scans (doi:10.1093/molbev/msab373).

B1: Azoarcus group I ribozyme (parent)
chain: GUGCCUUGCGCCGGGAAACCACGCAAGGGAUGGUGUCAAAUUCGGCGAAACCUAAGCGCCCGCCCGGGCGUAUGGCAACGCCGAGCCAAGCUUCGGCGCCUGCGCCGAUGAAGGUGUAGAGACUAGACGGCACCCACCUAAGGCAAACGCUAUGGUGAAGGCAUAGUCCAGGGAGUGGCGAAAGUCACACAAACCGG

Variants of: B1
Assay: reverse-splicing fitness (ratio to wild type); higher = more active; in vitro selection; Mg2+ level not given
Method in brief: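 An in vitro group I ribozyme library with randomized positions was T7-transcribed and gel-purified. In triplicate, 10 pmol RNA in EPPS pH 7.5 was reacted with 50 pmoles of a 30-nt RNA substrate for 1 h at 37 °C across several added MgCl2 levels (1–48 mM), then stopped with EDTA. Products were reverse transcribed from a substrate-complementary primer, PCR-amplified and sequenced (HiSeq 4000). Fitness is a variant's read proportion after selection over that before, normalised to wild type.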
Variant C82G A111U A120G A145G C150G C169U U176A has a reverse-splicing fitness of 0.0116. In the case of C82G A111U A120G A145G C150G C169U U176C, the reverse-splicing fitness is reported as 0.0128. For C82G A111U A120G A145G C150G C169U U176G, the reverse-splicing fitness was 0.00754. C82G A111U A120G A145G C150G U176A gave a reverse-splicing fitness of 0.00727. C82G A111U A120G A145G C150G U176C gave a reverse-splicing fitness of 0.0109. Variant C82G A111U A120G A145G C150G U176G has a reverse-splicing fitness of 0.00601. Variant C82G A111U A120G A145G C150U has a reverse-splicing fitness of 0.0139. In the case of C82G A111U A120G A145G C150U C169A, the reverse-splicing fitness is reported as 0.0121. C82G A111U A120G A145G C150U C169A U176A showed a reverse-splicing fitness of 0.0158. Work on C82G A111U A120G A145G C150U C169A U176C yielded a reverse-splicing fitness of 0.0145. C82G A111U A120G A145G C150U C169A U176G gave a reverse-splicing fitness of 0.00683. For C82G A111U A120G A145G C150U C169G, the reverse-splicing fitness was 0.0128. Variant C82G A111U A120G A145G C150U C169G U176A has a reverse-splicing fitness of 0.0137. Variant C82G A111U A120G A145G C150U C169G U176C has a reverse-splicing fitness of 0.0192. Variant C82G A111U A120G A145G C150U C169G U176G has a reverse-splicing fitness of 0.00526. Work on C82G A111U A120G A145G C150U C169U yielded a reverse-splicing fitness of 0.0112. In the case of C82G A111U A120G A145G C150U C169U U176A, the reverse-splicing fitness is reported as 0.0169. In the case of C82G A111U A120G A145G C150U C169U U176C, the reverse-splicing fitness is reported as 0.0151. C82G A111U A120G A145G C150U C169U U176G gave a reverse-splicing fitness of 0.00561. With C82G A111U A120G A145G C150U U176A the reverse-splicing fitness was 0.00946. C82G A111U A120G A145G C150U U176C gave a reverse-splicing fitness of 0.0167. With C82G A111U A120G A145G C150U U176G the reverse-splicing fitness was 0.00777. C82G A111U A120G A145G C169A showed a reverse-splicing fitness of 0.0111. Variant C82G A111U A120G A145G C169A U176A has a reverse-splicing fitness of 0.0172. Variant C82G A111U A120G A145G C169A U176C has a reverse-splicing fitness of 0.0214. C82G A111U A120G A145G C169A U176G showed a reverse-splicing fitness of 0.00491. Variant C82G A111U A120G A145G C169G has a reverse-splicing fitness of 0.0141. C82G A111U A120G A145G C169G U176A showed a reverse-splicing fitness of 0.0166. C82G A111U A120G A145G C169G U176C gave a reverse-splicing fitness of 0.0235. For C82G A111U A120G A145G C169G U176G, the reverse-splicing fitness was 0.00429. With C82G A111U A120G A145G C169U the reverse-splicing fitness was 0.00985. Work on C82G A111U A120G A145G C169U U176A yielded a reverse-splicing fitness of 0.0198. For C82G A111U A120G A145G C169U U176C, the reverse-splicing fitness was 0.0161. C82G A111U A120G A145G C169U U176G gave a reverse-splicing fitness of 0.00501. C82G A111U A120G A145G U176A showed a reverse-splicing fitness of 0.0125. For C82G A111U A120G A145G U176C, the reverse-splicing fitness was 0.0176. C82G A111U A120G A145G U176G showed a reverse-splicing fitness of 0.0077. Work on C82G A111U A120G A145U yielded a reverse-splicing fitness of 0.0161. Variant C82G A111U A120G A145U C150A has a reverse-splicing fitness of 0.00819. With C82G A111U A120G A145U C150A C169A the reverse-splicing fitness was 0.00975. Work on C82G A111U A120G A145U C150A C169A U176A yielded a reverse-splicing fitness of 0.0161. In the case of C82G A111U A120G A145U C150A C169A U176C, the reverse-splicing fitness is reported as 0.0142. Variant C82G A111U A120G A145U C150A C169A U176G has a reverse-splicing fitness of 0.00527. Work on C82G A111U A120G A145U C150A C169G yielded a reverse-splicing fitness of 0.00835. For C82G A111U A120G A145U C150A C169G U176A, the reverse-splicing fitness was 0.0162. Variant C82G A111U A120G A145U C150A C169G U176C has a reverse-splicing fitness of 0.0163. With C82G A111U A120G A145U C150A C169G U176G the reverse-splicing fitness was 0.00501. Variant C82G A111U A120G A145U C150A C169U has a reverse-splicing fitness of 0.00711. In the case of C82G A111U A120G A145U C150A C169U U176A, the reverse-splicing fitness is reported as 0.0183. C82G A111U A120G A145U C150A C169U U176C gave a reverse-splicing fitness of 0.0142. Variant C82G A111U A120G A145U C150A C169U U176G has a reverse-splicing fitness of 0.00528. C82G A111U A120G A145U C150A U176A gave a reverse-splicing fitness of 0.0108. C82G A111U A120G A145U C150A U176C gave a reverse-splicing fitness of 0.0173. C82G A111U A120G A145U C150A U176G showed a reverse-splicing fitness of 0.00661. C82G A111U A120G A145U C150G gave a reverse-splicing fitness of 0.00715. C82G A111U A120G A145U C150G C169A showed a reverse-splicing fitness of 0.00944. C82G A111U A120G A145U C150G C169A U176A showed a reverse-splicing fitness of 0.0104. With C82G A111U A120G A145U C150G C169A U176C the reverse-splicing fitness was 0.0114. C82G A111U A120G A145U C150G C169A U176G gave a reverse-splicing fitness of 0.00513. C82G A111U A120G A145U C150G C169G gave a reverse-splicing fitness of 0.00774. C82G A111U A120G A145U C150G C169G U176A gave a reverse-splicing fitness of 0.00644. C82G A111U A120G A145U C150G C169G U176C showed a reverse-splicing fitness of 0.00489. Variant C82G A111U A120G A145U C150G C169G U176G has a reverse-splicing fitness of 0.00425. Work on C82G A111U A120G A145U C150G C169U yielded a reverse-splicing fitness of 0.00825. For C82G A111U A120G A145U C150G C169U U176A, the reverse-splicing fitness was 0.0111. In the case of C82G A111U A120G A145U C150G C169U U176C, the reverse-splicing fitness is reported as 0.013. C82G A111U A120G A145U C150G C169U U176G showed a reverse-splicing fitness of 0.00505. With C82G A111U A120G A145U C150G U176A the reverse-splicing fitness was 0.00634. C82G A111U A120G A145U C150G U176C showed a reverse-splicing fitness of 0.0104. C82G A111U A120G A145U C150G U176G showed a reverse-splicing fitness of 0.0039. Variant C82G A111U A120G A145U C150U has a reverse-splicing fitness of 0.0139. Work on C82G A111U A120G A145U C150U C169A yielded a reverse-splicing fitness of 0.0117. C82G A111U A120G A145U C150U C169A U176A gave a reverse-splicing fitness of 0.0149. With C82G A111U A120G A145U C150U C169A U176C the reverse-splicing fitness was 0.0128. With C82G A111U A120G A145U C150U C169A U176G the reverse-splicing fitness was 0.00501. C82G A111U A120G A145U C150U C169G showed a reverse-splicing fitness of 0.0123. Variant C82G A111U A120G A145U C150U C169G U176A has a reverse-splicing fitness of 0.0145. Variant C82G A111U A120G A145U C150U C169G U176C has a reverse-splicing fitness of 0.017. C82G A111U A120G A145U C150U C169G U176G gave a reverse-splicing fitness of 0.00511. Variant C82G A111U A120G A145U C150U C169U has a reverse-splicing fitness of 0.00944. C82G A111U A120G A145U C150U C169U U176A showed a reverse-splicing fitness of 0.0188. C82G A111U A120G A145U C150U C169U U176C showed a reverse-splicing fitness of 0.0167. Work on C82G A111U A120G A145U C150U C169U U176G yielded a reverse-splicing fitness of 0.00486.
